Results from paper PMC12279954 (Nature Communications, 2025).

T1: human haptoglobin Hp1 (residue 1-347) (human, UniProt P00738-2 19-347)
T1 sequence: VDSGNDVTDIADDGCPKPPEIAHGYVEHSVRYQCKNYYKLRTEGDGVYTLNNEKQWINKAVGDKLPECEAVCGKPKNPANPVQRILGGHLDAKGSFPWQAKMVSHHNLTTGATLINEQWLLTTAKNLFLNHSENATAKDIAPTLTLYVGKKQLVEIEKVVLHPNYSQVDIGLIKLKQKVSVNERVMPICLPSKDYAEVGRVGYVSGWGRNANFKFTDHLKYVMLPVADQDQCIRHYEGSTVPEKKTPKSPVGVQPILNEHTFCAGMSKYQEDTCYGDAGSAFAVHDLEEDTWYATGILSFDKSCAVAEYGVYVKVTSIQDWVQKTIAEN

B1: human haptoglobin Hp2 (residue 1-406) (natural protein)
chain: VDSGNDVTDIADDGCPKPPEIAHGYVEHSVRYQCKNYYKLRTEGDGVYTLNDKKQWINKAVGDKLPECEADDGCPKPPEIAHGYVEHSVRYQCKNYYKLRTEGDGVYTLNNEKQWINKAVGDKLPECEAVCGKPKNPANPVQRILGGHLDAKGSFPWQAKMVSHHNLTTGATLINEQWLLTTAKNLFLNHSENATAKDIAPTLTLYVGKKQLVEIEKVVLHPNYSQVDIGLIKLKQKVSVNERVMPICLPSKDYAEVGRVGYVSGWGRNANFKFTDHLKYVMLPVADQDQCIRHYEGSTVPEKKTPKSPVGVQPILNEHTFCAGMSKYQEDTCYGDAGSAFAVHDLEEDTWYATGILSFDKSCAVAEYGVYVKVTSIQDWVQKTIAEN
B2: CD163 ectodomain (human CD163, residue 1-1050) (receptor)
chain: not shown
B3: hemoglobin-haptoglobin 1 complex (Hb-Hp1) (complex)
chain 1: not shown
chain 2: not shown
chain 3: T1 sequence
B4: hemoglobin-haptoglobin 2 complex (Hb-Hp2) (complex)
chain 1: not shown
chain 2: not shown
chain 3: B1 chain
B5: human hemoglobin (complex)
chain 1: not shown
chain 2: not shown

Assays:
SEC [1] = molecular target: the molecule itself; assay: SEC
SEC [2] = molecular target: the molecule itself; assay: SEC; remark: listed apart in the source
AUC [3] = molecular target: the molecule itself; assay: AUC
AUC [4] = molecular target: the molecule itself; assay: AUC; remark: listed apart in the source
[5] = molecular target: B2; assay: AUC
[6] = molecular target: CD163 ectodomain D292A/D293A (human, UniProt Q86VB7 42-1050, D292A | D293A); assay: pull-down
CD163 ectodomain E359A = CD163 ectodomain E359A (human, UniProt Q86VB7 42-1050, E359A); assay: pull-down
[7] = molecular target: B2; assay: SEC
[8] = molecular target: T1, human haptoglobin Hp1 (residue 1-347); assay: SEC
[9] = molecular target: B1; assay: SEC

Sequence of CD163 ectodomain E359A (Q86VB7 42-1050 E359A): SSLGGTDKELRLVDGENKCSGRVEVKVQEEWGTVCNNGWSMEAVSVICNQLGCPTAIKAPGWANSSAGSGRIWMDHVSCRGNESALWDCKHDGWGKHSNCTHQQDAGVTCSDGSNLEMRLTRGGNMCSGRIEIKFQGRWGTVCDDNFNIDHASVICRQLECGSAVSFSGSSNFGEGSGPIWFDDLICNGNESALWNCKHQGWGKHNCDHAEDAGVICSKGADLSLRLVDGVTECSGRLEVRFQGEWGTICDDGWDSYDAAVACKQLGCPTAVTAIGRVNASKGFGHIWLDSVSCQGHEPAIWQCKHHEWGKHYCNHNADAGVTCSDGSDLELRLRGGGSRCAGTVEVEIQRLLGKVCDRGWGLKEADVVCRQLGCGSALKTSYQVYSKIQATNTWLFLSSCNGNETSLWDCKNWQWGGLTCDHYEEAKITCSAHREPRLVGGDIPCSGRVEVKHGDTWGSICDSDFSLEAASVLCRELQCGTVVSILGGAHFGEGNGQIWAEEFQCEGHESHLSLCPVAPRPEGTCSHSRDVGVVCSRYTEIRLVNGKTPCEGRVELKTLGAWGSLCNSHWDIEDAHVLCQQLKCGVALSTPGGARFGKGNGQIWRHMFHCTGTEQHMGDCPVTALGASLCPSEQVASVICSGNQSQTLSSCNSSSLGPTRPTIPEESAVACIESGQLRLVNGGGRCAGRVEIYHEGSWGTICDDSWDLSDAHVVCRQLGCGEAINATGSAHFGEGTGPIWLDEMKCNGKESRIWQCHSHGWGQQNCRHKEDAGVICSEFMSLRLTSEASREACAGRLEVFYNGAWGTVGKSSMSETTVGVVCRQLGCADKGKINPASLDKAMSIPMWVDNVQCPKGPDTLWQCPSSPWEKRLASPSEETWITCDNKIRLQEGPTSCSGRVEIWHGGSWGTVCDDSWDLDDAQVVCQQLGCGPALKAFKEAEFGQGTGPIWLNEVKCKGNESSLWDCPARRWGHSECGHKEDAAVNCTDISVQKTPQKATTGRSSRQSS
Sequence of CD163 ectodomain D292A/D293A (Q86VB7 42-1050 D292A/D293A): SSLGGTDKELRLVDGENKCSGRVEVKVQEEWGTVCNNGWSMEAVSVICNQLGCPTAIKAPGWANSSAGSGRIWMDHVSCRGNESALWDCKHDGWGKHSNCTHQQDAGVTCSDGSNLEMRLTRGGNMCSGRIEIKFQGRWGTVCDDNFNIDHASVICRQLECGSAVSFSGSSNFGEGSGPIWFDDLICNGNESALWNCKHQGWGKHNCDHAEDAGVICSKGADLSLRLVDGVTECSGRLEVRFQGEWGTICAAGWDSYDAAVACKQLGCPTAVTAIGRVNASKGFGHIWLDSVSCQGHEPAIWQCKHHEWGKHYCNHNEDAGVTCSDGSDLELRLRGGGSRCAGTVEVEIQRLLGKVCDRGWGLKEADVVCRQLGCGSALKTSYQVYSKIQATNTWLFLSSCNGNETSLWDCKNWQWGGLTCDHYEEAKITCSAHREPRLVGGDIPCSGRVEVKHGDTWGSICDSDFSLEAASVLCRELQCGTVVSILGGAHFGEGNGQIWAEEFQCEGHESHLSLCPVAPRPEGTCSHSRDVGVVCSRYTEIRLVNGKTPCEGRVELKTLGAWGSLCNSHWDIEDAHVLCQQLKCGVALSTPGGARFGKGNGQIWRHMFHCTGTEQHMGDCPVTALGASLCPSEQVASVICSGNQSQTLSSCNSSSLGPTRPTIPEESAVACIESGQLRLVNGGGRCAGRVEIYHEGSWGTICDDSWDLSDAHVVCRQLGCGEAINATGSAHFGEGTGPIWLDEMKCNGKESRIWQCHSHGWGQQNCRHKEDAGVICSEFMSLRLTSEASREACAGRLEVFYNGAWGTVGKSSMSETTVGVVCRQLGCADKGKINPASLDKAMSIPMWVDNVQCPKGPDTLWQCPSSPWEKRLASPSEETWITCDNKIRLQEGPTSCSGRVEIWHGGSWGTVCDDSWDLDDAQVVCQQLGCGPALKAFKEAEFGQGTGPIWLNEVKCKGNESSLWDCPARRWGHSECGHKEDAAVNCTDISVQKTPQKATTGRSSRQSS

Does B1 bind (SEC [1])?
Result: binds

What does the source list for B2?
stoichiometry N (SEC [2]): ~3; stoichiometry N (AUC [3]): 3; stoichiometry N (AUC [4]): 2

Which results are given for B3?
binding result [5]: binds; binding result [6]: binds; binding result (CD163 ectodomain E359A): binds

Does B4 bind [7]?
Result: binds

Does B5 bind [8]?
Result: binds

Does B5 bind [9]?
Result: binds
